In US20100323904, “Transcription chip” (published 2010):

Tests used:
NF-kB p50 [1] = biological target: T1, NF-kB p50 (UniProt P19838 P19838:1-433); experiment: array fluorescence immunoassay, 100 ng/mL; conditions: tags: Promega; chain copies: 2
Experimental: (§1) After washing twice with the washing buffer, NFκB diluted at 100 ng/mL with the binding buffer was added, and shaken at room temperature for one hour. After washing three times with the washing buffer, anti-NFκB antibody (RCK) diluted 100 times with antibody diluting buffer was added, and shaken at room temperature for one hour. After washing twice with the washing buffer, FITC-labeled anti-rabbit IgG antibody diluted 50 times with the antibody diluting buffer was added, and shaken at room temperature for one hour. After washing twice with the washing buffer, at a fluorescence wavelength of 535 nm based on Fluorescence of FITC excited with laser at a wavelength of 473 nm, fluorescent intensity was detected by CRBIO II microarray scanner.
The oligonucleotides comprising 9 element sequences, PRD II, AP1, p53, VDRE, RARE, CRE, TRE, GRE and ERE which were not labeled with FITC were similarly immobilized on the DLC chip. NFκB (100 ng/mL) was added to the DLC chip on which these 9 transcription factors had been arrayed, and detected by fluorescence immunoassay. As a result, the fluorescence was detected only from the oligonucleotide comprising PRD II which was the NFκB recognition sequence. […] Therefore, it is possible to construct the system in which multiple transcription factors are simultaneously detected in a sample in a small amount by combining antibodies which specifically recognize the transcription factors which is bound to the other element sequences.

Vitamin D receptor (VDR) = biological target: T2, Vitamin D receptor (VDR) (UniProt P11473 P11473:1-427); experiment: 500 fmol/chip; captured VDR detected by on-chip trypsin digestion and MALDI-TOF MS
T2 sequence: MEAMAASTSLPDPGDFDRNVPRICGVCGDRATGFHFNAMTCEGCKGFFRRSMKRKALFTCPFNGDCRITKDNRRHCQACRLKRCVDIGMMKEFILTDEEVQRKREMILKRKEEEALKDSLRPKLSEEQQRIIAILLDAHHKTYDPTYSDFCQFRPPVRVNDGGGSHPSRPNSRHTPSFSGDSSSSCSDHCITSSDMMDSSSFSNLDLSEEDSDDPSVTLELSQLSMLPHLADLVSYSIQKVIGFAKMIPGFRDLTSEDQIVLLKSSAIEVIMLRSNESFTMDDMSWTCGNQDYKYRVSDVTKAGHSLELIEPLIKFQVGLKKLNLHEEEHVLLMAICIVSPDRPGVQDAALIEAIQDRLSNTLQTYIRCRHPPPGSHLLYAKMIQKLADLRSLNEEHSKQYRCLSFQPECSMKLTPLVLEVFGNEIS
Experimental: Next, the on-chip digestion of 500 fmol/chip of vitamin D receptor was performed using trypsin (1 μg/mL) on the chip on which the element sequence VDRE which was the recognition sequence of the vitamin D receptor had been immobilized. Subsequently, the sample was added to the MALDI plate, and consequently, the same peptide map as that obtained by trypsin digestion of the sample in the solution was obtained as is the case with NFκB (FIGS. 16 and 17).

NF-kB p50 [2] = biological target: T1, NF-kB p50; experiment: array fluorescence immunoassay, 100 ng/mL; in ELISA about 30-50% background color before blocking optimisation; conditions: tags: Promega; chain copies: 2
Experimental: as §1
The oligonucleotides comprising 9 element sequences, PRD II, AP1, p53, VDRE, RARE, CRE, TRE, GRE and ERE which were not labeled with FITC were similarly immobilized on the DLC chip. NFκB (100 ng/mL) was added to the DLC chip on which these 9 transcription factors had been arrayed, and detected by fluorescence immunoassay. As a result, the fluorescence was detected only from the oligonucleotide comprising PRD II which was the NFκB recognition sequence. […]

NF-kB p50 [3] = biological target: T1, NF-kB p50; experiment: ELISA; trapping equivalent to or more than PRD II-2; conditions: tags: Promega; chain copies: 2; label: 5'-FITC on bottom strand
Experimental: (§2) The plate was washed twice with the washing buffer, NFκB at various concentrations diluted with the binding buffer was added, and the plate was shaken at room temperature for one hour. The plate was washed three times with the washing buffer, anti-NFκB antibody diluted 2000 times with antibody diluting buffer was added, and the plate was shaken at room temperature for one hour. The plate was washed three times with the washing buffer, POD-labeled anti-rabbit IgG secondary antibody diluted 2000 times with the antibody diluting buffer was added, and the plate was shaken at room temperature for one hour. The plate was washed five times with the washing buffer, and subsequently absorbance at a wavelength of 450 nm based on the absorbance of TMBZ which was a color development substrate of POD was measured by a microplate reader.
(§3) In order to investigate an ELISA condition for NFκB, the double-stranded DNA comprising the element DNA sequence different in length and copy number were synthesized by the PCR method or a synthetic method, and analyzed. When PRD II-1 comprising one copy of the PRD II sequence was compared with PRD II-2, the immobilized PRD II-2 was more excellent in efficiency of trapping NFκB (FIG. 5). […]

NF-kB p50 [4] = biological target: T1, NF-kB p50; experiment: ELISA; on-chip ELISA; detected down to 1.0 ng/mL (DLC) and 0.33 ng/mL (GeneDia); 1% BSA, 10 mM HEPES pH 7.5, salmon sperm DNA, 2 mM DTT, room temperature; also fluorescence immunoassay on array; conditions: tags: Promega; chain copies: 2
Experimental: as §2, §3

T1 sequence (P19838 1-433, one chain of several): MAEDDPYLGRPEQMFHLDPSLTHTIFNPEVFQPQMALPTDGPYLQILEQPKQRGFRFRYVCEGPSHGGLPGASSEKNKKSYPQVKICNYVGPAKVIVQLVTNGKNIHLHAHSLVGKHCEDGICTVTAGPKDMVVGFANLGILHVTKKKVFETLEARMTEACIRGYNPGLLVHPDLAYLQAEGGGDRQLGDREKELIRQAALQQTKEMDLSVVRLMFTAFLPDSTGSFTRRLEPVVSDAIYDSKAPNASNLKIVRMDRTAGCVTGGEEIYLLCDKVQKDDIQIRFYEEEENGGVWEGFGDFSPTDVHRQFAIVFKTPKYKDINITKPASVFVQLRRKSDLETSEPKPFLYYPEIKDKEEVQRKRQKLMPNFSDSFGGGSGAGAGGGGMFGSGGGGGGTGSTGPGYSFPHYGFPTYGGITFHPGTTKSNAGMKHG

B1: TRE (dsDNA)
DNA 1: GGGAGCTGAGTAAGGTCATGACCTATGCATGCAGGTCATGACCTCATG
DNA 2: CATGAGGTCATGACCTGCATGCATAGGTCATGACCTTACTCAGCTCCC
modifications: 5'-NH2(CH2)12 on top strand, immobilized on chip
NF-kB p50 [1]
  binding result: no binding

B2: VDRE (dsDNA)
DNA 1: GGGAGCTGAGTAAGGTCAAGGAGGTCAATGCATGCAGGTCAAGGAGGTCACATG
DNA 2: CATGTGACCTCCTTGACCTGCATGCATTGACCTCCTTGACCTTACTCAGCTCCC
modifications: 5'-NH2(CH2)12 on top strand, immobilized on chip
NF-kB p50 [1]
  binding result: no binding
Vitamin D receptor (VDR)
  binding result: binds

B3: RARE (dsDNA)
DNA 1: GGGAGCTGAGTAAGGTCACCAGGAGGTCAATGCATGCAGGTCACCAGGAGGTCACATG
DNA 2: CATGTGACCTCCTGGTGACCTGCATGCATTGACCTCCTGGTGACCTTACTCAGCTCCC
modifications: 5'-NH2(CH2)12 on top strand, immobilized on chip
NF-kB p50 [1]
  binding result: no binding

B4: AP1 (dsDNA)
DNA 1: GGGAGCTGAGTATGACTCATATGCATGCTGACTCATCATG
DNA 2: CATGATGAGTCAGCATGCATATGAGTCATACTCAGCTCCC
modifications: 5'-NH2(CH2)12 on top strand, immobilized on chip
NF-kB p50 [2]
  binding result: no binding

B5: IgkB (two copies) (dsDNA)
DNA 1: GGGAGCTGAGTAGGGGATCCCATGCATGCGGGGATCCCCATG
DNA 2: CATGGGGATCCCCGCATGCATGGGATCCCCTACTCAGCTCCC
modifications: 5'-NH2(CH2)12 on top strand, immobilized on chip
NF-kB p50 [3]
  binding result: binds

B6: PRD II (two copies) (dsDNA)
DNA 1: GGGAGCTGAGTAGGGAAATTCCATGCATGCGGGAAATTCCCATG
DNA 2: CATGGGAATTTCCCGCATGCATGGAATTTCCCTACTCAGCTCCC
modifications: 5'-NH2(CH2)12 on top strand, immobilized on chip
NF-kB p50 [4]
  binding result: binds

B7: CRE (dsDNA)
DNA 1: GGGAGCTGAGTATGACGTCAATGCATGCTGACGTCACATG
DNA 2: CATGTGACGTCAGCATGCATTGACGTCATACTCAGCTCCC
modifications: 5'-NH2(CH2)12 on top strand, immobilized on chip
NF-kB p50 [1]
  binding result: no binding
